The source of these data is patent US20070141665A1.

The assay has as its target Cavβ3-I-II2.1 chimera (rat β3 subunit fused at its C-terminal end to the I-II loop of the rabbit Cavα2.1 subunit), [35S]-labelled (rat; rabbit) (UniProt P54287). As to the kind of experiment: Gβγ (10 to 900 nM) displaces the intramolecular Cavβ-AID2.1 binding of [35S] Cavβ3-I-II2.1; read as binding of the chimera to GST-AID1.2 after 30 min at 30 °C, SDS-PAGE and autoradiography.

As usually defined, the IC50 is the concentration needed to halve the response being measured.

Sequence of UniProt P54287 (P54287 other isoform, or with tags, fused parts or gaps mutant): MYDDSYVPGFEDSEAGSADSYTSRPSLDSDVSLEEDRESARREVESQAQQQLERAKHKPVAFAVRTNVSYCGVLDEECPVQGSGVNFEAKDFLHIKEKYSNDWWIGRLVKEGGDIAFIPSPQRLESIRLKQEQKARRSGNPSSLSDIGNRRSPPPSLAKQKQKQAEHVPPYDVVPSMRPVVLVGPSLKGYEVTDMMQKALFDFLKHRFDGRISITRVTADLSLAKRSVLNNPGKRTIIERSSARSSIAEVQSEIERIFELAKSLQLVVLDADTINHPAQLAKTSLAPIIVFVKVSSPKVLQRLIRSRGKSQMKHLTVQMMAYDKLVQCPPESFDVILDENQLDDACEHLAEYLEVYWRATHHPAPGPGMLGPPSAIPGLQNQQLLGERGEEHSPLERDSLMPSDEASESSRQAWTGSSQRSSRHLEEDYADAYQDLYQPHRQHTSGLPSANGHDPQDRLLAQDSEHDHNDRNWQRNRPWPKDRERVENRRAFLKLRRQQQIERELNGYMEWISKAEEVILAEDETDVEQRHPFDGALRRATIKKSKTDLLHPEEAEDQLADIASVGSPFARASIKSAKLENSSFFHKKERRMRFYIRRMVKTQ

Substance G-protein Gβγ complex (Calbiochem) came in with an IC50 of 0.16 µM.
